Data set [1] addresses ParE full-length;ParC55 (Streptococcus pneumoniae;Streptococcus …, UniProt Q59961;P72525 1-647;1-488, |). The data set is described as follows: X-ray crystallography (6.5 A); 10 mM MgCl2, 2 mM levofloxacin; cleavage complex; Crystallization: protein in 20 mM Tris-HCl pH 7.5, 100 mM NaCl, 1 mM beta-mercaptoethanol, 0.05% Na azide, 10 mM MgCl2, 2 mM levofloxacin; 4I3H reservoir 50 mM. Particulars: protein: recombinant;recombinant; chain copies: 2;2; 26mer duplex; 4-bp stagger between cleavage sites.

Data set [2] has as its target ParE-ParC55 fusion protein (topo IV) (Streptococcus pneumoniae 7785, UniProt Q59961 1-647+P72525:1-488, internal_change). The data set is described as follows: X-ray crystallography (3.7 A); 10 mM MgCl2, 2 mM levofloxacin added; drug-free complex; G-gate DNA bent, uncleaved; second linear B-form duplex at C-gate helices (ParC R468, K464, N461, H196); no ATP; Crystallization: protein in 20 mM Tris-HCl pH 7.5, 100 mM NaCl, 1 mM beta-mercaptoethanol, 0.05% Na azide, 10 mM MgCl2, 2 mM levofloxacin; 4I3H reservoir 50 mM. Particulars: protein: recombinant; tags: C-terminal His6; chain copies: 2; 34 bp duplex; 4-bp stagger between cleavage sites.

Two molecules from article PMC3834822, “Structure of an ‘open’ clamp type II topoisomerase-DNA complex provides a mechanism for DNA capture and transport” can be followed below.

B1: 26mer E-site DNA (dsDNA)
DNA 1: AGGTCATGAATGACTATGCACGTAAA
DNA 2: TTTACGTGCATAGTCATTCATGACCT
For B1, the binding result in data set [1] is reported as “binds”.

B2: 34mer V-site DNA (dsDNA)
DNA 1: CAAAGGCGGTAATACGGTTATCCACAGAATCAGG
DNA 2: CCTGATTCTGTGGATAACCGTATTACCGCCTTTG
With B2, the binding result in data set [2] is listed as “binds”.
